From IntAct's records for PubMed 20639899

B1: E1B 55 kDa protein (Human adenovirus C serotype 5 (HAdV-5)), P03243-1 (parent)
chain: MERRNPSERGVPAGFSGHASVESGCETQESPATVVFRPPGDNTDGGAAAAAGGSQAAAAGAEPMEPESRPGPSGMNVVQVAELYPELRRILTITEDGQGLKGVKRERGACEATEEARNLAFSLMTRHRPECITFQQIKDNCANELDLLAQKYSIEQLTTYWLQPGDDFEEAIRVYAKVALRPDCKYKISKLVNIRNCCYISGNGAEVEIDTEDRVAFRCSMINMWPGVLGMDGVVIMNVRFTGPNFSGTVFLANTNLILHGVSFYGFNNTCVEAWTDVRVRGCAFYCCWKGVVCRPKSRASIKKCLFERCTLGILSEGNSRVRHNVASDCGCFMLVKSVAVIKHNMVCGNCEDRASQMLTCSDGNCHLLKTIHVASHSRKAWPVFEHNILTRCSLHLGNRRGVFLPYQCNLSHTKILLEPESMSKVNLNGVFDMTMKIWKVLRYDETRTRCRPCECGGKHIRNQPVMLDVTEELRPDHLVLACTRAEFGSSDEDTD

Variants of: B1
Conditions: with PML

| Variant | effect of a mutation on the interaction |
| --- | --- |
| V103D | disrupting interaction |
| K104R | disrupting interaction |

Variants of: B1
Conditions: with pml_human PML

| Variant | effect of a mutation on the interaction |
| --- | --- |
| K104R | disrupting interaction |
